Test results reported in patent US20190112392A1 (Ablynx, published 2019).

Columns and labels:
human CD20 on cells [1] = target: T1, human CD20 on cells (human, UniProt P11836 1-297); test: flow cytometry on Raji cells, MCF (Mean PE)
T1 construct: whole, on cells; Tumour antigen on the target cells; also called CD20 positive Ramos cells; Ramos cells
T1 sequence (looked up): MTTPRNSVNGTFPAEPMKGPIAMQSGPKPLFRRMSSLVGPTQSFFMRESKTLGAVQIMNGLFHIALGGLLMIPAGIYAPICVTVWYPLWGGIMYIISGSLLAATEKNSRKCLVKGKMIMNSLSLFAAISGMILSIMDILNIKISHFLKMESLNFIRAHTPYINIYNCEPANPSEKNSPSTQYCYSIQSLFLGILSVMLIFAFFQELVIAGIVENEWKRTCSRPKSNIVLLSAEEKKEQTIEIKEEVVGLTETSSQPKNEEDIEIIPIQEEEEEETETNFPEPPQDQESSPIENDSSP

human CD20 on cells [2] = target: T1, human CD20 on cells; test: flow cytometry on Ramos cells, MCF (Mean PE)
[3] = target: T2, soluble recombinant cynomolgus TCR alpha/beta-zipper protein (cynomolgus/rhesus monkey); test: ELISA, 2 µg/mL coated soluble recombinant cynomolgus TCR α/β-zipper protein, OD 450 nm
T2 construct: Made in house in CHOK1SV cells; extracellular domains fused to a zipper protein; also called cynoTCR-zipper protein; not shown: zipper protein (O'Shea et al. 1993)
T2 V domain 1: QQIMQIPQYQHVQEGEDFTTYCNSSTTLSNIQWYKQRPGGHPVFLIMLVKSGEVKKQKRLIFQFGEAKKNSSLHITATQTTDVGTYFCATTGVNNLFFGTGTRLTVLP
T2 V domain 2: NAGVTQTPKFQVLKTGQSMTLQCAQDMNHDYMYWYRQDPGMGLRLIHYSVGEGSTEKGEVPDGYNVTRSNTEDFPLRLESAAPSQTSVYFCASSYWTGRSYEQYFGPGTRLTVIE
Method: Quality of the TCR α/β zipper proteins was assessed in an ELISA binding assay. Maxisorp 96-well ELISA plates (Nunc) were coated with 2 μg/mL soluble recombinant human TCR α/β (2XN9)-zipper protein or soluble recombinant cynomolgus TCR α/β-zipper protein. After an overnight incubation, plates were washed and blocked with PBS+1% casein for 1 h at room temperature. Next, plates were incubated with serial dilutions of either a functional flag tagged Nanobody or the functional mouse IgG anti-non-human primate/Rat TCRα/β antibody, clone R73 (eBioscience 16-5960) for 1 h at room temperature while shaking, washed again and incubated with mouse anti-flag-HRP (Sigma, #A8592) respectively rabbit anti-mouse-HRP (Dako, # P0260). After 1 h, TMB One Solution (Promega #G7431) was added. The reaction was stopped with 2M H₂SO₄ and the dose dependent binding was determined by measuring the OD at 450 nm using the Tecan sunrise 4 (FIG. 2).

human CD20 on cells [4] = target: T1, human CD20 on cells; test: cell-based or functional assay
human CD20 on cells [5] = target: T1, human CD20 on cells; test: cell-based or functional assay; remark: listed apart in the source
human CD20 on cells [6] = target: T1, human CD20 on cells; test: flow cytometry, Ramos cells
[7] = target: T3, T cell receptor alpha/beta on purified primary human T cells (human, UniProt P01848 1-140; P01850 1-176); test: flow cytometry, purified primary human T cells; purified primary human T cells
T3 construct: whole, on cells; also called human primary T cells
T3 TCR alpha (looked up): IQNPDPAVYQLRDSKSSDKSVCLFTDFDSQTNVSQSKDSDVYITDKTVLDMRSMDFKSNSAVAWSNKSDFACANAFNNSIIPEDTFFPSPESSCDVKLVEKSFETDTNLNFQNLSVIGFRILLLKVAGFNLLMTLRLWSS
T3 TCR beta (looked up): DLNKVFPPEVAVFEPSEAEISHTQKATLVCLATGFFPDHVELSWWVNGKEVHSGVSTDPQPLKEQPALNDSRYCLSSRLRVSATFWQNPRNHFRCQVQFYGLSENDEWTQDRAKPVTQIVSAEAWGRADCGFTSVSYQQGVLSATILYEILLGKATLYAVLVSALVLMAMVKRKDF

[8] = target: T4, T cell receptor alpha/beta on primary cynomolgus T cells (cynomolgus); test: cell-based or functional assay
[9] = target: T4, T cell receptor alpha/beta on primary …; test: cell-based or functional assay; remark: listed apart in the source
[10] = target: T4, T cell receptor alpha/beta on primary …; test: cell-based or functional assay; remark: listed apart in the source
[11] = target: T4, T cell receptor alpha/beta on primary …; test: cell-based or functional assay; remark: listed apart in the source
[12] = target: T3, T cell receptor alpha/beta on purified …; test: flow cytometry, purified primary human T cells

B1: anti-CD20 Nanobody (VHH)
VHH: EVQLVESGGGLVQPGGSLRLSCTFSGGTFSSYTMGWFRQAPGKEREFVAEVRWGGVTTYSNSLKDRFSISEDSVKNAVYLQMNSLKPEDTAVYYCAAVRQMYMTVVPDYWGQGTLVTVSS
For B1, the “EC50 (read off the curve)” value (human CD20 on cells [1]) was roughly 20 nM and the “EC50 (read off the curve)” value (human CD20 on cells [2]) was roughly 9 nM.

B2: cAblys (VHH)
VHH: DVQLQASGGGSVQAGGSLRLSCAASGYTIGPYCMGWFRQAPGKEREGVAAINMGGGITYYADSVKGRFTISQDNAKNTVYLLMNSLEPEDTAIYYCAADSTIYASYYECGHGLSTGGYGYDSWGQGTQVTVSS
notes: also called cAblys3; irrelevant anti-egg lysozyme Nanobody
B2: no binding (tested: 1e-6 M) [3].

B3: T017000068 (bispecific antibody)
chain: EVQLVESGGGLVQPGGSLRLSCTFSGGTFSSYTMGWFRQAPGKEREFVAEVRWGGVTTYSNSLKDRFSISEDSVKNAVYLQMNSLKPEDTAVYYCAAVRQMYMTVVPDYWGQGTLVTVSSGGGGSGGGGSGGGGSGGGGSGGGGSGGGGSGGGGSEVQLVESGGGLVQPGGSLRLSCITSGETFKINIWGWYRQAPGKQRELVASLTIGGATNYADSVKGRFTISEDSAKNTVYLQMNSLKPEDTAVYFCNAKSRLYPYDYWGQGTLVTVSSGAADYKDHDGDYKDHDIDYKDDDDKGAAHHHHHH
notes: CD20 x TCR bispecific Nanobody construct (cluster B); entry includes the FLAG3-HIS6 tag; also called 20CD019C07-35GS-T0170055C07-FLAG3-HIS6
In the case of B3, the “IC50, xCELLigence human T cell mediated CHO-K1 CD20 killing assay, E:T 30:1, 44 h” value (human CD20 on cells [4]) is reported as 13 nM, the “IC50, flow cytometry based human T cell mediated Ramos killing assay, E:T 10:1” value (human CD20 on cells [5]) is reported as 1 nM and the EC50 (human CD20 on cells [6]) is reported as 1.8 nM. The EC50 [7] was 6.2 nM.

B4: T017000076 (bispecific antibody)
chain: EVQLVESGGGLVQPGGSLRLSCTFSGGTFSSYTMGWFRQAPGKEREFVAEVRWGGVTTYSNSLKDRFSISEDSVKNAVYLQMNSLKPEDTAVYYCAAVRQMYMTVVPDYWGQGTLVTVSSGGGGSGGGGSGGGGSGGGGSGGGGSGGGGSGGGGSEVQLVESGGGLVQPGGSLRLSCVASGDVHKINFLGWYRQAPGKEREKVAHISIGDQTDYADSAKGRFTISRDESKNMVYLQMNSLKPEDTAVYFCRAFSRIYPYDYWGQGTLVTVSSGAADYKDHDGDYKDHDIDYKDDDDKGAAHHHHHH
notes: CD20 x TCR bispecific Nanobody construct (cluster A); entry includes the FLAG3-HIS6 tag; also called 20CD019C07-35GS-T0170056G05-FLAG3-HIS6
With B4 the “IC50, xCELLigence human T cell mediated CHO-K1 CD20 killing assay, E:T 30:1, 44 h” value (human CD20 on cells [4]) was 0.36 nM, the “IC50, cynomolgus T cell dependent B cell (Ramos) killing assay” value [8] was 0.52 nM and the “IC50, xCELLigence cynomolgus T cell mediated CHO-K1 human CD20 killing assay” value [9] was 0.14 nM. For the same binder, the “IC50, flow cytometry based human T cell mediated Ramos killing assay, E:T 10:1” value (human CD20 on cells [5]) was 0.3 nM, the “IC50, flow cytometry based cynomolgus T cell mediated B cell (Ramos) killing assay” value [10] was 0.309 nM and the “IC50, xCELLigence cynomolgus T cell mediated CHO-K1 human CD20 killing assay, E:T 30:1” value [11] was 0.67 nM. It also gave an EC50 (human CD20 on cells [6]) of 1.8 nM and an EC50 [12] of 130 nM.
